US12558350B2, “Compositions and methods for treatment” (Bausch + Lomb Ireland Limited, priority 2005, dated 2026)

Key:
[1] = target: T1, LFA-1 (Homo sapiens, UniProt P05107+P20701); assay: LFA-1/small molecule ELISA, antagonist competition with compound 2B; conditions: 25 nM compound 2B; FIG. 8B; read-out: IC50, inhibition of binding of compound 2B to LFA-1
T1 construct: made in house; host or cells: human 293 cells
Description: 96-well plates were coated with 5 μg/ml (33.3 nM) mouse anti-human 82 integrin (a non-function blocking antibody) in phosphate-buffered saline (PBS) overnight at 4° C. The plates were blocked with assay buffer (20 mM Hepes, pH 7.2, 140 mM NaCl, 1 mM MnCl2, 0.5% bovine serum albumin (BSA) and 0.05% Tween-20) for 1 hour at room temperature. After washing in buffer (50 mM Tris-HCl, pH 7.5, 100 mM NaCl, 1 mM MnCl2, and 0.05% Tween-20), 8 nM LFA-1 (LFA-1/ICAM-1 ELISA) or 2 nM LFA-1 (LFA-1/small molecule ELISA) were added, followed by incubation for 1 h at 37° C. […] In the LFA-1/small molecule ELISA, the diluted antagonists and 25 nM compound 2B were added concurrently to the plates, followed by a 2-hour incubation at 37° C. Sheep anti-fluorescein-HRP was added after a wash and incubated for one hour at 37° C. For both assays, after washing, the bound HRP-conjugated antibodies were detected by addition of tetramethylbenzidine (TMB) followed by measurement of the absorbance of the product at 450 nm after the addition of 1 M H3PO4 to stop the reaction. The IC50 values for each curve were determined by fitting to the four-parameter equation described above using KaleidaGraph software.

[2] = target: T1, LFA-1; assay: LFA-1/small molecule ligand binding ELISA; conditions: FIG. 10B, D, F
Description: (§1) Pharmacologic Analysis of Drug-Receptor Interaction, Lippincott-Raven, Philadelphia). […] The order of antagonist concentrations was, -[…]-(lowest added antagonist concentration), -Δ-, -μ-, -♦-, -▪-, -σ- to -λ-(highest antagonist concentration). The fits of the data are shown as the solid lines. The data shown are from one plate and are representative of a minimum of two experiments.
(§2) In all cases the ligand was added concurrently with the antagonist. The plates were incubated for 6 h at 37° C. to approach equilibrium conditions after antagonist and ligand addition, before wash and addition of the detection antibody. The EC50 values for each curve were determined by fitting with a four parameter model as described above. […] The slopes of the plots of the Log (Conc. ratio −1) vs. Antagonist concentration are calculated by fitting the line to the linear equation, Y=A+BX.

[3] = target: T2, LFA-1/ICAM-1 (Homo sapiens, UniProt P05107+P20701); assay: LFA-1/ICAM-1 ligand binding ELISA with Schild analysis
T2 construct: made in house; host or cells: human 293 cells
T2 sequence (P20701 26-1170): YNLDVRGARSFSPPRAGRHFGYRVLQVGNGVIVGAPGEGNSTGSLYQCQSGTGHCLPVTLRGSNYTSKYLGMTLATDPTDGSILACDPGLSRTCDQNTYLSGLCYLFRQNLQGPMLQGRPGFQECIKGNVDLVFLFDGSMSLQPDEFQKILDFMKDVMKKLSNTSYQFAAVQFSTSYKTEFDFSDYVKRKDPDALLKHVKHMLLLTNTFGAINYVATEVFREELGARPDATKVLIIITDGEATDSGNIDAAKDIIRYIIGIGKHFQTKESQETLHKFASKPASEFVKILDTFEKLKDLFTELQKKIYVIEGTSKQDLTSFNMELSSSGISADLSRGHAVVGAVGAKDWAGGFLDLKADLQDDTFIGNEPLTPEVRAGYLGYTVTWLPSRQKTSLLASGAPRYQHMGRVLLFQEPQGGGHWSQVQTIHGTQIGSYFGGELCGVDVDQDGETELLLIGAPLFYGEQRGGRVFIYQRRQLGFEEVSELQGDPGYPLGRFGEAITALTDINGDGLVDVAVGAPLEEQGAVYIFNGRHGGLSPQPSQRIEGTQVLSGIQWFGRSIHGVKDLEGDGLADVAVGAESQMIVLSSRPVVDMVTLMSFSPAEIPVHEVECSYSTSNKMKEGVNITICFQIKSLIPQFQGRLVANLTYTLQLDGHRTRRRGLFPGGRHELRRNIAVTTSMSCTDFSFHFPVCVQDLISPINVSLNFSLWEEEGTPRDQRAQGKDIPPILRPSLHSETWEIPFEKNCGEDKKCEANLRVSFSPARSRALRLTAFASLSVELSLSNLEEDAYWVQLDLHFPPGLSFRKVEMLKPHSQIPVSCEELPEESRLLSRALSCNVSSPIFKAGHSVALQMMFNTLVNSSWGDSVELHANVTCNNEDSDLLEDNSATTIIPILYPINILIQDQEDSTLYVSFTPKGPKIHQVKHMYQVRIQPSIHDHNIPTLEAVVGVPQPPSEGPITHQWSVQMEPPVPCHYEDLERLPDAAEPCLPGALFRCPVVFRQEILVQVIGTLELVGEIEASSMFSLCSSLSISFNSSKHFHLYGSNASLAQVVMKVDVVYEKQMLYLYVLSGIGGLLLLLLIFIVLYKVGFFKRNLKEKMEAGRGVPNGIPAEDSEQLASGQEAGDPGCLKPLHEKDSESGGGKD
T2 sequence (P05107 23-769): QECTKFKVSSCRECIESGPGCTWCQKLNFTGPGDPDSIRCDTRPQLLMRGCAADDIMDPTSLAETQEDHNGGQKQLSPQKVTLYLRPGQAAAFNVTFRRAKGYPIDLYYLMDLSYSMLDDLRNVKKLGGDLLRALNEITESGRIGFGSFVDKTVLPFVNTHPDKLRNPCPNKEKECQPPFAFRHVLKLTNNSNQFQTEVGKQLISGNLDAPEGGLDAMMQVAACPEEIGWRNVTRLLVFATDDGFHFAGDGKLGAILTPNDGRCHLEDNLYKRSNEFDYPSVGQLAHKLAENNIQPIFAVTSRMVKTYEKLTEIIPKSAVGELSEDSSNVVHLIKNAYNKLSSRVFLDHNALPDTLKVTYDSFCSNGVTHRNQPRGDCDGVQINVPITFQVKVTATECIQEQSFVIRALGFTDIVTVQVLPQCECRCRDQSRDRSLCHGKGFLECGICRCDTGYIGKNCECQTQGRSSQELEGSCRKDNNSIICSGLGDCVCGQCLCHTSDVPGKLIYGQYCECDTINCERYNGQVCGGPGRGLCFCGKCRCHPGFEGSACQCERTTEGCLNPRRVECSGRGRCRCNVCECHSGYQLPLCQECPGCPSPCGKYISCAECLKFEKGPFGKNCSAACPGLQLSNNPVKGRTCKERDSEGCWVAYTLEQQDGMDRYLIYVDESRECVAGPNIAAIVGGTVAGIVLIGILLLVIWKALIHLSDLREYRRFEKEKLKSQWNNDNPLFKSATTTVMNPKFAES
From the text: as §1
This model is based upon the assumptions that equiactive responses in an assay are the result of equivalent occupancy of receptor by ligand and that maximal binding is unchanged by the presence of antagonist. In a Schild analysis, the dose ratio is the ratio of the EC50 values in the presence and absence of antagonist and is a measure of the ligand concentrations leading to equiactive responses. This dose ratio was determined for each concentration of antagonist and the Schild regressions were plotted as shown in FIG. 11.
as §2

T1 sequence (P20701 26-1170): as the sequence (P20701 26-1170) above
T1 sequence (P05107 23-769): as the sequence (P05107 23-769) above

IC50 [1]: 1200 nM
effect of increasing antagonist concentration on compound 2B binding curves [2]: showed a similar effect
slope of Schild regression ([3]; ligand ICAM-1-Ig, FIG. 11): 1.26
y-intercept of Schild regression ([3]; ligand ICAM-1-Ig, FIG. 11): 8.51
B1: sICAM-1: truncated form of native ICAM-1 without the transmembrane and cytoplasmic domains, with intact LFA-1 binding epitope; R&D Systems (protein, UniProt P05362 28-480, looked up)
extracellular domain: QTSVSPSKVILPRGGSVLVTCSTSCDQPKLLGIETPLPKKELLLPGNNRKVYELSNVQEDSQPMCYSNCPDGQSTAKTFLTVYWTPERVELAPLPSWQPVGKNLTLRCQVEGGAPRANLTVVLLRGEKELKREPAVGEPAEVTTTVLVRRDHHGANFSCRTELDLRPQGLELFENTSAPYQLQTFVLPATPPQLVSPRVLEVDTQGTVVCSLDGLFPVSEAQVHLALGDQRLNPTVTYGNDSFSAKASVSVTAEDEGTQRLTCAVILGNQSQETLQTVTIYSFPAPNVILTKPEVSEGTEVTVKCEAHPRAKVTLNGVPAQPLGPRAQLLLKATPEDNGRSFSCSATLEVAGQLIHKNQTRELRVLYGPRLDERDCPGNWTWPENSQQTPMCQAWGNPLPELKCLKDGTFPLPIGESVTVTRDLEGTYLCRARSTQGEVTRKVTVNVLSPRYE
modifications: extracellular domain
notes: R&D Systems
effect of increasing antagonist concentration on ICAM-1-Ig binding curves ([3]; FIG. 10A, C, E): shifted the ICAM-1-Ig binding curves rightward to higher EC50 values
